We go through 1 molecule from article PMC5102827 (Oncogene, 2016).

Test [1] concerns the target recombinant NOTCH3 protein (Homo sapiens, UniProt Q9UM47). Description: SPR. For orientation: In SPR one partner is held on a chip, and binding of the other changes the refractive index at the surface.
For test [2], the target named is NOTCH3 on the surface of cells expressing NOTCH3 (Homo sapiens, UniProt Q9UM47). Kind of test: flow cytometry on cells. In general terms: Flow cytometry measures light scatter and fluorescence of single cells or particles in a stream.

B1: MOR20358 anti-NOTCH3 NRR antibody (antibody, V domains shown)
VH: QVQLVQSGAEVKKPGSSVKVSCKASGGTFRTYAMHWVRQAPGQGLEWMGGIVPYHGITDYAQKFQGRVTITADESTSTAYMELSSLRSEDTAVYYCARDDYSTYAFAYWGQGTLVTVSS
VL: DIQMTQSPSSLSASVGDRVTITCRASQSIASYLAWYQQKPGKAPKLLIYDASNLQSGVPSRFSGSGSGTDFTLTISSLQPEDFATYYCQQAYKTPYTFGQGTKVEIK
The term Kd denotes the concentration at which binding is half-saturated. The term EC50 denotes the midpoint of the concentration-response curve. A high value points to a less potent agent. For the molecule B1, the dissociation constant Kd in test [1] is 0.6 nM. In test [2], this molecule yielded an EC50 of 0.14 nM.
